Measured values taken from the nanobody polyreactivity screen of Harvey et al. (2022).

Test: yeast display, Sf9 membrane polyspecificity reagent, FACS + sequencing; frameworks hold sequencing errors
Outline: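 After 36–48 hours of galactose induction, yeast (Saccharomyces cerevisiae BJ5465) displaying a synthetic nanobody library were stained at 4 °C for 1 hour with 10% biotinylated, detergent-solubilized Sf9 membrane reagent. Streptavidin microbeads enriched the stained cells before FACS sorting into low and high (top ~1%) gates on anti-HA and streptavidin fluorescence. Each clone's polyreactivity label reflects its gate of origin.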

Sequence	polyreactivity (PSR sort gate)
QVQLVESGGGLVQAGGSLRLSCAASGSTFYTYAMGWYRQAPGKERELVAAISNRGGSTRYADSVKGRFTISRDTAKNTVYLQMNSLKPEDTAVYYCAARVTQTGYYWGQGTQVTVSS	high polyreactivity
QVQLVESGGGLVQAGGSLRLSCAASGSTFYTYAMGWYRQAPGKERELVAAITRGGGRTYYADSVKGRFTISRDNAKNTVYLQMNSLKPEDTAVYYCAATVGYGHSYAGWYWVDYWGQGTQVTVSS	high polyreactivity
QVQLVESGGGLVQAGGSLRLSCAASGSTFYVNAMGWYRQAPGKERELVAAISWTDDSTYYADSVKGRFTISRDNAKNTVYLQMNSLKPEDTAVYYCAAEQYRYYEVEYWGQGTQVTVSS	high polyreactivity
QVQLVESGGGLVQAGGSLRLSCAASGSTFYVNDMGWYRQAPGKERELVAAIDWTGGTTYYADSVKGRFTISRDNAKNTVYLQMNSLKPEDTAVYYCAVDDSTVDYDYWGQGTQVTVSS	low polyreactivity
QVQLVESGGGLVQAGGSLRLSCAASGSTFYVYAMGWYRQAPGKERELVAAIDDSGDRTYYADSVKGRFTISRDNAKNTVYLQMNSLKPEDTAVYYCAAEYDSWEYDYWGQGTQVTVSS	low polyreactivity
QVQLVESGGGLVQAGGSLRLSCAASGSTFYVYAMGWYRQAPGKERELVASITRGGGTYADSVKGRFTISRDNAKNTVYLQMNSQKPEDTAVYYCNARWQRSTGGRQRYDYWGQGTQVSVSS	high polyreactivity
QVQLVESGGGLVQAGGSLRLSCAASGSTFYYNAMGWYRQAPGKEREFVAANSSRGGSTYYADSVKGRFTISRDNAKNTVYLQMNSLKPEDTAVYYCAADYYVWTPIGVRQYDYWGHGTQVTVSS	high polyreactivity
QVQLVESGGGLVQAGGSLRLSCAASGSTFYYNAMGWYRQAPGKERELVAAISKRGGTTSYADSVKGRFTISRDNAKNTVYLQMNSLKPEDTADYYCADQTYLRQYYRYYWGQGTQVTVSS	high polyreactivity
QVQLVESGGGLVQAGGSLRLSCAASGSTFYYNAMGWYRQAPGKERELVARISRAGASTYYAVAVKGRFTISRDNAKNTVYLPMNSLTPEDTAGYYCAARKKKYGYDNWGQATQVTVSS	high polyreactivity
QVQLVESGGGLVQAGGSLRLSCAASGSTFYYNAMGWYRQAPGKERELVARISRSGGSTYADSVKGRFTISRDNAKNTVYLQMNSLKPEDTAVYYCNADAYGTPEFTSYAVRYDYWGQGTQVNVSS	low polyreactivity
QVQLVESGGGLVQAGGSLRLSCAASGSTFYYNAMGWYRQAPGKERELVAVITLNGGRTSYADSVKGRFTISRDNAKNTVYLQMNSLKPEDTAVYYCAADRYRGYGYWGQGTQVTVSS	low polyreactivity
QVQLVESGGGLVQAGGSLRLSCAASGSTFYYNAMGWYRQSPGKERELVARISRSGGSTYADSVKRRFTISRDNAKNTVYLQMNSLKPEDTAVYYCNAEAYGTPEFTSYAVRYDYWGQGTQVTVSS	low polyreactivity
QVQLVESGGGLVQAGGSLRLSCAASGSTFYYNGMGWYRQAPGKERELVARITRTGGSTYYADSVKGRFTISRDNAKNTVYLQMNSLKPEDTAVYYCNADYYSRTKRKYRYGYWGQGTQVTVSS	high polyreactivity
QVQLVESGGGLVQAGGSLRLSCAASGSTFYYYAMGWYRQAPGKERELVAAIRLIGGTTYYADSVKGRFTISRDNAKNTVYLQMNSLKPEDTAVYYCNARYSTGYTSPSYWGVYKHYDSWGQGTQVTVSS	low polyreactivity
QVQLVESGGGLVQAGGSLRLSCAASGSTFYYYAMGWYRQAPGKERELVAAISATGGSTYYADSVKGRFTISRDNAKNTVYLQMNSLKPEDTAVYYCAAYASRRLRTIRIFGNDYWGQGTQVTVSS	high polyreactivity
QVQLVESGGGLVQAGGSLRLSCAASGSTFYYYAMGWYRQAPGKERELVASINKIVGITDYADSVKGRFTISRDNAKNTGYLQRNSLTPEDTAVYYCAAHGRINPDVPRTDFFASEEDYWGQGTQVTVSS	low polyreactivity

Sequence	polyreactivity (PSR sort gate)
QVQLVESGGGLVQAGGSLRLSCAASGSTFYYYTMGWSRQAPGKERELVAAITYSGGSTRYADSVKGRFTISRDNAKNTVYLQMNSLKPEDTAVYYCAAELTEWTNGFDYWGQGTQVTVSS	high polyreactivity
QVQLVESGGGLVQAGGSLRLSCAASGSTFYYYTMGWYRQAPGKERELVAAITYSGGSTRYADSVKGRFTISRDNAKNTVYLQMNSLKPEDTAVYYCAAGYYWSSFAFRDMDYWGQGTQVTVSS	high polyreactivity
QVQLVESGGGLVQAGGSLRLSCAASGSTFYYYTMGWYRQAPGKERELVAVISRDGRTNYADSVKGRFTISRDNAKNTVYVQMNSLKPEDTAVYYCNADYYWNGVYHYDYWGQGTQVTVSS	low polyreactivity
QVQLVESGGGLVQAGGSLRLSCAASGSTFYYYVMGWYRQAPGKERELVAAISSGGHTNYADSVKGRFTISRDNAKNTVYLQMNSLKPEDTAVYYCAAKPWRGTLLRYGYWGQGTQVTVSS	high polyreactivity
QVQLVESGGGLVQAGGSLRLSCAASGSTIADNAMGWYRQAPGKERELVAAITRSGVRTYYADSVKGRFTISRDTAKNTVYLQMNSLKPEDTAVYYCAKRTYPSRIYDYWGQGTQVTVSS	high polyreactivity
QVQLVESGGGLVQAGGSLRLSCAASGSTIDHNAMGWYRQAPGKERELVATISSSGGSTYYADSVKGRFTISRDNAKNTVYLQMNSLKPEDTAVYYCAVRAYYWRSYPYNYWGQGTQVTVSS	high polyreactivity
QVQLVESGGGLVQAGGSLRLSCAASGSTIFIYAMGWYRQAPGKERELVAAISGSGGTTYYADSVKGRFTISRDNAKITVYLQMNSLKPEDTAVYYCATDITLWYAYSHEGLYIGYYWGQGTQVSVSS	low polyreactivity
QVQLVESGGGLVQAGGSLRLSCAASGSTIFSYAMGWYRQSPGKERELVAAITYRSSRTYYADSVKGRFTISRDNAKNTVYLQMNSLKPEDTAVYYCARGGTAYRYHMDYWGQGTQVTVSS	high polyreactivity
QVQLVESGGGLVQAGGSLRLSCAASGSTIGIYAMGGYRQAPGKERELVAAISSGGSTNYGDSVKGRFTISRDNEKNTVYLQMNSLKQEDTAVYYCAVESVYEYGGYVDSAYDYWGQGTQVTVSS	low polyreactivity
QVQLVESGGGLVQAGGSLRLSCAASGSTIGPYARGWYRQAPGKERELVAAIRYSSVRTYYADSVKGRFTISRDNAKNTVYLQMKSLKPEDTAVYYCNAVFWSYTEWGRSDYWGQGTEVTVSS	low polyreactivity
QVQLVESGGGLVQAGGSLRLSCAASGSTIGRYAMGWYRQAPGKERELVASIRSSGSTYYADSVKGRFTISRDNAKNTVYLQMNSLKPEDTAVYYCNRGVYYGSRYNYWGQGTQVTVSS	high polyreactivity
QVQLVESGGGLVQAGGSLRLSCAASGSTIHYYAMGWYRQAPGKERELVAAISSSGVSTYYADSVKGRFTISRDNAKNTVYLQMNSLKPEDTAVYYCNRASVFHYRWYYYGGQGTQVTVSS	high polyreactivity
QVQLVESGGGLVQAGGSLRLSCAASGSTIIDYDMGWYRQAPGKERELVAGISWSGGRTYYADSVKGRFTISRDNAKNTVYLQMNSLKPEDTEVYYCNKVGRGARTSDYWGQGTQVTVSS	high polyreactivity
QVQLVESGGGLVQAGGSLRLSCAASGSTILRYAMGWYRQAPGKERELVATISRSDDGTYYADYVKGRFTISRDNAKNTVYLQMNSLKPEDTAVYYCGARSWYLYYYWGLGTQVTVSS	low polyreactivity
QVQLVESGGGLVQAGGSLRLSCAASGSTILVNAMGWYRQAPGKERELVAAISRGGSTYYADSVKGRFTISRDNAKNTVYLQMTSLKPEDTAVSYCAARGVYVKYYYWGQGTQVTVSS	high polyreactivity
